Data published in US10919943B2, “Mutant proteins enabling agrochemical control of plant gene expression” (The Regents of the University of California, priority 2016, dated 2021).
Changes are numbered by the printed parent chain. Names may count otherwise.

B1: F159Y: PYR1 mutant (protein, UniProt O49686 1-191, looked up, variant F159Y)
Abscisic acid receptor PYR1: MPSELTPEERSELKNSIAEFHTYQLDPGSCSSLHAQRIHAPPELVWSIVRRFDKPQTYKHFIKSCSVEQNFEMRVGCTRDVIVISGLPANTSTERLDILDDERRVTGFSIIGGEHRLTNYKSVTTVHRFEKENRIWTVVLESYVVDMPEGNSEDDTRMYADTVVKLNLQKLATVAEAMARNSGDGSGSQVT
B2: F61S: PYR1 mutant (protein, UniProt O49686 1-191, looked up, variant F61S)
Abscisic acid receptor PYR1: B1 Abscisic acid receptor PYR1 with F61S, Y159F
B3: I62D: PYR1 mutant (protein, UniProt O49686 1-191, looked up, variant I62D)
Abscisic acid receptor PYR1: B1 Abscisic acid receptor PYR1 with I62D, Y159F
B4: I62R: PYR1 mutant (protein, UniProt O49686 1-191, looked up, variant I62R)
Abscisic acid receptor PYR1: B1 Abscisic acid receptor PYR1 with I62R, Y159F
B5: I84L: PYR1 mutant (protein, UniProt O49686 1-191, looked up, variant I84L)
Abscisic acid receptor PYR1: B1 Abscisic acid receptor PYR1 with I84L, Y159F
B6: K63P: PYR1 mutant (protein, UniProt O49686 1-191, looked up, variant K63P)
Abscisic acid receptor PYR1: B1 Abscisic acid receptor PYR1 with K63P, Y159F
B7: I62G: PYR1 mutant (protein, UniProt O49686 1-191, looked up, variant I62G)
Abscisic acid receptor PYR1: B1 Abscisic acid receptor PYR1 with I62G, Y159F
B8: I62E: PYR1 mutant (protein, UniProt O49686 1-191, looked up, variant I62E)
Abscisic acid receptor PYR1: B1 Abscisic acid receptor PYR1 with I62E, Y159F
B9: F159D: PYR1 mutant (protein, UniProt O49686 1-191, looked up, variant F159D)
Abscisic acid receptor PYR1: B1 Abscisic acid receptor PYR1 with Y159D
B10: F61R: PYR1 mutant (protein, UniProt O49686 1-191, looked up, variant F61R)
Abscisic acid receptor PYR1: B1 Abscisic acid receptor PYR1 with F61R, Y159F
B11: T162E: PYR1 mutant (protein, UniProt O49686 1-191, looked up, variant T162E)
Abscisic acid receptor PYR1: B1 Abscisic acid receptor PYR1 with Y159F, T162E
B12: F61E: PYR1 mutant (protein, UniProt O49686 1-191, looked up, variant F61E)
Abscisic acid receptor PYR1: B1 Abscisic acid receptor PYR1 with F61E, Y159F
B13: F61P: PYR1 mutant (protein, UniProt O49686 1-191, looked up, variant F61P)
Abscisic acid receptor PYR1: B1 Abscisic acid receptor PYR1 with F61P, Y159F
B14: T162F: PYR1 mutant (protein, UniProt O49686 1-191, looked up, variant T162F)
Abscisic acid receptor PYR1: B1 Abscisic acid receptor PYR1 with Y159F, T162F
B15: F159H: PYR1 mutant (protein, UniProt O49686 1-191, looked up, variant F159H)
Abscisic acid receptor PYR1: B1 Abscisic acid receptor PYR1 with Y159H
B16: T162P: PYR1 mutant (protein, UniProt O49686 1-191, looked up, variant T162P)
Abscisic acid receptor PYR1: B1 Abscisic acid receptor PYR1 with Y159F, T162P
B17: I62Y: PYR1 mutant (protein, UniProt O49686 1-191, looked up, variant I62Y)
Abscisic acid receptor PYR1: B1 Abscisic acid receptor PYR1 with I62Y, Y159F
B18: F61Q: PYR1 mutant (protein, UniProt O49686 1-191, looked up, variant F61Q)
Abscisic acid receptor PYR1: B1 Abscisic acid receptor PYR1 with F61Q, Y159F
B19: K170P: PYR1 mutant (protein, UniProt O49686 1-191, looked up, variant K170P)
Abscisic acid receptor PYR1: B1 Abscisic acid receptor PYR1 with Y159F, K170P
B20: F61D: PYR1 mutant (protein, UniProt O49686 1-191, looked up, variant F61D)
Abscisic acid receptor PYR1: B1 Abscisic acid receptor PYR1 with F61D, Y159F
B21: I62K: PYR1 mutant (protein, UniProt O49686 1-191, looked up, variant I62K)
Abscisic acid receptor PYR1: B1 Abscisic acid receptor PYR1 with I62K, Y159F
B22: S85A: PYR1 mutant (protein, UniProt O49686 1-191, looked up, variant S85A)
Abscisic acid receptor PYR1: B1 Abscisic acid receptor PYR1 with S85A, Y159F
B23: S85M: PYR1 mutant (protein, UniProt O49686 1-191, looked up, variant S85M)
Abscisic acid receptor PYR1: B1 Abscisic acid receptor PYR1 with S85M, Y159F
B24: F61G: PYR1 mutant (protein, UniProt O49686 1-191, looked up, variant F61G)
Abscisic acid receptor PYR1: B1 Abscisic acid receptor PYR1 with F61G, Y159F
B25: F61H: PYR1 mutant (protein, UniProt O49686 1-191, looked up, variant F61H)
Abscisic acid receptor PYR1: B1 Abscisic acid receptor PYR1 with F61H, Y159F
B26: F61I: PYR1 mutant (protein, UniProt O49686 1-191, looked up, variant F61I)
Abscisic acid receptor PYR1: B1 Abscisic acid receptor PYR1 with F61I, Y159F
B27: F159G: PYR1 mutant (protein, UniProt O49686 1-191, looked up, variant F159G)
Abscisic acid receptor PYR1: B1 Abscisic acid receptor PYR1 with Y159G
B28: F61K: PYR1 mutant (protein, listed as Arabidopsis thaliana)
chain: B1 Abscisic acid receptor PYR1 with F61K, Y159F
B29: S85L: PYR1 mutant (protein, UniProt O49686 1-191, looked up, variant S85L)
Abscisic acid receptor PYR1: B1 Abscisic acid receptor PYR1 with S85L, Y159F
B30: F159E: PYR1 mutant (protein, UniProt O49686 1-191, looked up, variant F159E)
Abscisic acid receptor PYR1: B1 Abscisic acid receptor PYR1 with Y159E
B31: F159K: PYR1 mutant (protein, UniProt O49686 1-191, looked up, variant F159K)
Abscisic acid receptor PYR1: B1 Abscisic acid receptor PYR1 with Y159K
B32: F61N: PYR1 mutant (protein, UniProt O49686 1-191, looked up, variant F61N)
Abscisic acid receptor PYR1: B1 Abscisic acid receptor PYR1 with F61N, Y159F
B33: I62W: PYR1 mutant (protein, UniProt O49686 1-191, looked up, variant I62W)
Abscisic acid receptor PYR1: B1 Abscisic acid receptor PYR1 with I62W, Y159F

Test system: HAB1
Test: Yeast two hybrid of pBD-PYR1 site saturation mutants with pACT-HAB1 on 10 μM ABA, β-galactosidase staining
Type: cell-based, Arabidopsis
Set-up: key: x: Mutations in PYR1 that disrupt ABA-induced binding to PYR1 to HAB1
Details: S. cerevisiae Y190, 10 μM ABA; dead = lack of visible staining in comparison to wild type control
How it was run: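 S. cerevisiae Y190 co-expressing GAL4-DNA-binding-domain–PYR1 mutants and GAL4-activation-domain–HAB1 were spotted on SD (-Leu, -Trp) agar with 10 μM (+)-ABA for 2 days at 30° C. Colonies were chloroform-lysed and stained for β-galactosidase. Mutants lacking visible staining relative to wild type were scored as non-binding.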

| Mutations in PYR1 that disrupt ABA-induced binding to PYR1 to HAB1 | Molecule |
| --- | --- |
| x | B1 |
| x | B2 |
| x | B3 |
| x | B4 |
| x | B5 |
| x | B6 |
| x | B7 |
| x | B8 |
| x | B9 |
| x | B10 |
| x | B11 |
| x | B12 |
| x | B13 |
| x | B14 |
| x | B15 |
| x | B16 |
| x | B17 |

| Mutations in PYR1 that disrupt ABA-induced binding to PYR1 to HAB1 | Molecule |
| --- | --- |
| x | B18 |
| x | B19 |
| x | B20 |
| x | B21 |
| x | B22 |
| x | B23 |
| x | B24 |
| x | B25 |
| x | B26 |
| x | B27 |
| x | B28 |
| x | B29 |
| x | B30 |
| x | B31 |
| x | B32 |
| x | B33 |
